Experimental data published in publication PMC5114395.

Molecular target: Ku heterodimer (Ku70 and Ku80) (UniProt P12956)
UniProt P12956, sequence (P12956 whole entry, chain 1 of 2): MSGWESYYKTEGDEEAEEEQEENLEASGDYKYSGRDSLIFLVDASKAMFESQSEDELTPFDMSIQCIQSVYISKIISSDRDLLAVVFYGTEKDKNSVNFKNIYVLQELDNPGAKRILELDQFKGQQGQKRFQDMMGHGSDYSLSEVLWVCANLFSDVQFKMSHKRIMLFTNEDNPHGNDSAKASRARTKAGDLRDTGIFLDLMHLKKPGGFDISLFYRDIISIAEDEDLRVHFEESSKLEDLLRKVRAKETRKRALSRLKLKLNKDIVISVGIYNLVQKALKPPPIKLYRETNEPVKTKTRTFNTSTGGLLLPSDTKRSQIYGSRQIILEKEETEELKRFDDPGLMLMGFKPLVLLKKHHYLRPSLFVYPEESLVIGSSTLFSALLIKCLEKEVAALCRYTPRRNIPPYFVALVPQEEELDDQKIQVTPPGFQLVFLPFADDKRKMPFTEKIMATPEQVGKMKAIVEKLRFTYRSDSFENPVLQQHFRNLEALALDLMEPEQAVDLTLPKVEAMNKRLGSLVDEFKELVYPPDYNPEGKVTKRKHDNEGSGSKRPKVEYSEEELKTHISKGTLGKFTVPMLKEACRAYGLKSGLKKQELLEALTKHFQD
UniProt P12956, sequence (P13010 whole entry, chain 2 of 2, further chain): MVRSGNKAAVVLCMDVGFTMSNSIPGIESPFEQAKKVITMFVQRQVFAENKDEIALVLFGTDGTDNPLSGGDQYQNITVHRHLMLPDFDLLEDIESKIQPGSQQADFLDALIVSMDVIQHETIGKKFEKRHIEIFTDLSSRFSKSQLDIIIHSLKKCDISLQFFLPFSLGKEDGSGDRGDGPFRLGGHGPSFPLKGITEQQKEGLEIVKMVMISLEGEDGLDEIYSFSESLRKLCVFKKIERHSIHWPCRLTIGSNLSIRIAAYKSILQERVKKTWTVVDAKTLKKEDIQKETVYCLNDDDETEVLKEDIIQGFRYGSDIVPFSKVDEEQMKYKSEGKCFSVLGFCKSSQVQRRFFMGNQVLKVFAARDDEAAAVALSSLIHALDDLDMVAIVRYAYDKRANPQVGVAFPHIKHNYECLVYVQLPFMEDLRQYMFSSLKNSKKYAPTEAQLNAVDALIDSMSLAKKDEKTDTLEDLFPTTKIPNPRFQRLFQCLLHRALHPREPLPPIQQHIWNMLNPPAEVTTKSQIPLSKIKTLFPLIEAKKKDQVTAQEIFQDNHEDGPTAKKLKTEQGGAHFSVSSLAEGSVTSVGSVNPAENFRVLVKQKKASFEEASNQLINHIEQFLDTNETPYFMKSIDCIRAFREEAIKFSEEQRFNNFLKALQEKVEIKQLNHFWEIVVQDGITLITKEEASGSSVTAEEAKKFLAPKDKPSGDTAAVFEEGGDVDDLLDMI

## PAXX (paralog of XRCC4 and XLF) (from UniProt Q9BUH6 1-204) (natural protein)
  NHEJ efficiency of blunt-ended DNA with Ku, DNA-PKcs, Artemis, X4·LIV and Pol μ, without or with 500 nM PAXX (Fig. 7B, lanes 12–15): 2 fold
